Data: patent US7479482B2 (priority 2001, dated 2009)
Like-named read-outs stand apart in the source and are kept apart here.

Legend:
[1] = test system: human neuroblastoma cell line (SK-N-SH)
[2] = test system: Tg2576 mice; settings: mouse, in vivo
[3] = format: physicochemical

For “Aβ1-42: amyloid β peptide 1-42, control peptide and comparison immunogen”, the “aggregates visible under the microscope in culture wells” value [1] was “aggregates were visible”, the “toxicity to neuroblastoma cells (MTT)” value [1] was “toxic” and the “radial arm maze skills” value [2] was “had the radial arm maze skills of the positive control”. For the same substance, the “alpha (secondary structure by CD)” value ([3]; Time 0 hr) was 9%, the “beta-sheet (secondary structure by CD)” value ([3]; Time 0 hr) was 36% and the “random (secondary structure by CD)” value ([3]; Time 0 hr) was 55%. The “alpha (secondary structure by CD)” value ([3]; Time 24 hr) was 9%, the “beta-sheet (secondary structure by CD)” value ([3]; Time 24 hr) was 40% and the “random (secondary structure by CD)” value ([3]; Time 24 hr) was 51%. For the same substance, the “alpha (secondary structure by CD)” value ([3]; Time 96 hr) was 5%, the “beta-sheet (secondary structure by CD)” value ([3]; Time 96 hr) was 55% and the “random (secondary structure by CD)” value ([3]; Time 96 hr) was 40%.
